The source of these data is publication PMC11261779, “Structural studies of WDR5 in complex with MBD3C WIN motif reveal a unique binding mode” (The Journal of Biological Chemistry, 2024).

The labels stand for the following.
B1: MBD3C_(40-51) peptide (methyl-CpG binding domain 3 isoform C, WIN motif) (peptide)
peptide: GAARCRVFSPQG
notes: numbers count on: isoform MBD3C; also called MBD3C peptide; MBD3C WIN motif; source: synthetic peptide (GenScript)
B2: MBD3C_(40-51) (R43K) peptide (peptide)
peptide: GAAKCRVFSPQG
notes: numbers count on: isoform MBD3C; also called MBD3C^R43K; source: synthetic peptide (GenScript)
B3: MBD3C_(40-51) (F47H) peptide (peptide)
peptide: GAARCRVHSPQG
notes: numbers count on: isoform MBD3C; also called MBD3C^F47H; source: synthetic peptide (GenScript)
B4: MBD3C_(40-51) (R45E) peptide (peptide)
peptide: GAARCEVFSPQG
notes: numbers count on: isoform MBD3C; also called MBD3C^R45E; source: synthetic peptide (GenScript)
B5: MBD3C_(40-51) (F47A) peptide (peptide)
peptide: GAARCRVASPQG
notes: numbers count on: isoform MBD3C; also called MBD3C^F47A; source: synthetic peptide (GenScript)

The target of one assay is WD repeat-containing protein 5 (WDR5), truncated construct, residues 24-334 (mouse, UniProt P61965 24-334). As to the kind of experiment: ITC; peptide (0.5 to 1.0 mM) titrated into WDR5 protein (44.5 μM) in the cell; 20 °C; Buffer D (20 mM Tris-HCl, 200 mM NaCl, pH 7.5); single binding site model. As to conditions: both partners purified. Background: ITC needs no label: the signal is the heat of the interaction.
As to B1, binding was characterised by a dissociation constant (Kd) of 130 ± 20 nM; the dH was -11.4 ± 0.13 kcal/mol; the stoichiometry N (as a rule, a count of units in the complex or per binding partner) turned out to be 1.06.
Taken in the same sequence, the figures for B2 were 1310 ± 210 nM, -15 ± 0.52 kcal/mol and 1.17.
The matching figures for B3: 1010 ± 40 nM, -7.8 ± 0.04 kcal/mol and 0.99.
The matching figures for B4: 670 ± 60 nM, -7.49 ± 0.08 kcal/mol and 1.25.
Regarding B5, the Kd (commonly the concentration at which binding is half-saturated) is 650 ± 30 nM, the dH was -7.32 ± 0.05 kcal/mol and the “stoichiometry N” value was found to be 1.34.

The next assay deals with WDR5 (residues 24-334) D107S (mouse, UniProt P61965 24-334, D107S). The description is as above. The note with it: both partners purified.
In the case of B1, the Kd is 10800 ± 1030 nM, the dH is -5.4 ± 0.17 kcal/mol and the “stoichiometry N” value amounted to 1.34.
